Reference: paper PMC12360793 (2025)
Numbering of substitutions follows the chain as printed. Read-outs that look alike come from different tables or passages of the source.

Experiments:
Assay in all cases: BLI
PnNL2018B S1-hFc [1] = molecular target: T1, PnNL2018B S1-hFc (PnNL2018B (bat MERSr-CoV sampled in …))
PnNL2018B S1-hFc [2] = molecular target: T1, PnNL2018B S1-hFc; remark: listed apart in the source
[3] = molecular target: T2, biotinylated monomeric MOW15–22 RBD (MOW15–22 (bat MERSr-CoV sampled in …))
[4] = molecular target: T2, biotinylated monomeric MOW15–22 RBD; remark: listed apart in the source

B1: soluble dimeric P.nat ACE2 ectodomain (residues 18–739, twin-strep-3×FLAG) (domain or fragment)
chain: QSLTTEEKAREFLDKFNSEAENWSHESALASWDYNTNINDKNAQKMNEADSKWSAFYKEHSKLAQGFPLQEIQNSTIKLQLQILQQNGSSVLTAEKSKRLSTILTTMSTIYSTGKVCNPNNPQQCFTLSGLEDIMEKSKDYHQRLWIWEGWRSEVGKQLRPLYEEYVALKNEMARGNNYKDYGDYWRGDYETEGGDGYNYSRNHLIEDVDRIFLEIKPLYEQLHAYVRAKLMNAYPSRISPTGCLPAHLLGDMWGRFWTNLYNLTVPFEKKQNIDVTDTMKKQSWDAEKIFKEAEKFYLSVGLHNMTPEFWNNSMLTEPSDGRQVVCHPTAWDLGKNDFRIKMCTKVTMDDFLTAHHEMGHIQYDMAYAKQPYLLRNGANEGFHEAVGEVMSLSVATPKHLKGMGLLPSNFSEDCETEINFLLKQALNIVGTLPFTYMLEKWRWMVFEGKIPKEQWMEKWWEMKREIVGVVEPLPHDETYCDPASLFHVANDYSFIRYFTRTILEFQFQEALCQIANHTGPLHKCDISNSTEAGKQLKNMLELGKSKPWTFALEQIARTKEMDAKPLLNYFKPLFSWLKEQNGNSVGWSADWSPYSEQSIKVRISLKSALGEKAYEWNDNEMYLFRSSVAYAMRVYFLKVKNETIPFRAEDVWVSDEKIRVSFKFFVTSPTNVSDIIPRSEVEDAIRMSRGRINDAFRLDDKTLEFLGIQPTLGPPYQPPVT
B1 was tested, and the Kd (PnNL2018B S1-hFc [1]) was 183 nM and the koff (PnNL2018B S1-hFc [1]) was 0.00727 s⁻¹.

B2: soluble dimeric P.nat.M1 ACE2 ectodomain (twin-strep-3×FLAG) (domain or fragment)
chain: B1 chain with V390I, V395A, G403D, M404L, P408A, S409Q, F411Y, S412P, C415Y
With B2 the Kd (PnNL2018B S1-hFc [2]) was 16.9 nM and the koff (PnNL2018B S1-hFc [2]) was 0.00179 s⁻¹.

B3: monomeric P.dav ACE2 ectodomain (residues 17–613, avi-His8) (domain or fragment)
chain: AQSTTEELAKTFLEKFNHEAEELSYQSSLASWNYNTNITDENVQKMNEAGAKWSAFYEEQSKLAKTYPLAEIHNTTVKRQLQALQQSGSSVLSADKSQRLNTILNAMSTIYSTGKACNPNNPQECLLLEPGLDDIMENSKDYNERLWAWEGWRAEVGKQLRPLYEEYVALKNEMARANNYEDYGDYWRGDYEEEWTDGYNYSRSQLIKDVEHTFTQIKPLYQHLHAYVRAKLMDTYPSRISPTGCLPAHLLGDMWGRFWTNLYPLTVPFGQKPNIDVTDAMVNQSWDARRIFKEAEKFFVSVGLPNMTQGFWENSMLTEPGDSRKVVCHPTAWDLGKGDFRIKMCTKVTMDDFLTAHHEMGHIQYDMAYAVQPFLLRNGANEGFHEAVGEIMSLSAATPNHLKTIGLLSPGFSEDSETEINFLLKQALTIVGTLPFTYMLEKWRWMVFKGEIPKEQWMQKWWEMKREIVGVVEPVPHDETYCDPASLFHVANDYSFIRYYTRTIYQFQFQEALCRIAKHEGPLHKCDISNSSEAGKKLLQMLTLGKSKPWTLALEHVVGEKKMNVTPLLKYFEPLFTWLKEQNRNSFVGWNTDWRPY
In the case of B3, the koff [3] is reported as 0.0567 s⁻¹.

B4: dimeric P.dav ACE2 ectodomain (residues 17–728, avi-His8) (domain or fragment)
chain: AQSTTEELAKTFLEKFNHEAEELSYQSSLASWNYNTNITDENVQKMNEAGAKWSAFYEEQSKLAKTYPLAEIHNTTVKRQLQALQQSGSSVLSADKSQRLNTILNAMSTIYSTGKACNPNNPQECLLLEPGLDDIMENSKDYNERLWAWEGWRAEVGKQLRPLYEEYVALKNEMARANNYEDYGDYWRGDYEEEWTDGYNYSRSQLIKDVEHTFTQIKPLYQHLHAYVRAKLMDTYPSRISPTGCLPAHLLGDMWGRFWTNLYPLTVPFGQKPNIDVTDAMVNQSWDARRIFKEAEKFFVSVGLPNMTQGFWENSMLTEPGDSRKVVCHPTAWDLGKGDFRIKMCTKVTMDDFLTAHHEMGHIQYDMAYAVQPFLLRNGANEGFHEAVGEIMSLSAATPNHLKTIGLLSPGFSEDSETEINFLLKQALTIVGTLPFTYMLEKWRWMVFKGEIPKEQWMQKWWEMKREIVGVVEPVPHDETYCDPASLFHVANDYSFIRYYTRTIYQFQFQEALCRIAKHEGPLHKCDISNSSEAGKKLLQMLTLGKSKPWTLALEHVVGEKKMNVTPLLKYFEPLFTWLKEQNRNSFVGWNTDWRPYADQSIKVRISLKSALGDEAYEWNDNEMYLFRSSVAYAMREYFSKVKNQTIPFVEDNVWVSNLKPRISFNFFVTASKNVSDVIPRSEVEEAIRMSRSRINDAFRLDDNSLEFLGIQ
B4 gave a koff [3] of 0.000712 s⁻¹.

B5: dimeric P.nat ACE2 ectodomain (residues 17–729, avi-His8) (domain or fragment)
chain: AQSLTTEEKAREFLDKFNSEAENWSHESALASWDYNTNINDKNAQKMNEADSKWSAFYKEHSKLAQGFPLQEIQNSTIKLQLQILQQNGSSVLTAEKSKRLSTILTTMSTIYSTGKVCNPNNPQQCFTLSGLEDIMEKSKDYHQRLWIWEGWRSEVGKQLRPLYEEYVALKNEMARGNNYKDYGDYWRGDYETEGGDGYNYSRNHLIEDVDRIFLEIKPLYEQLHAYVRAKLMNAYPSRISPTGCLPAHLLGDMWGRFWTNLYNLTVPFEKKQNIDVTDTMKKQSWDAEKIFKEAEKFYLSVGLHNMTPEFWNNSMLTEPSDGRQVVCHPTAWDLGKNDFRIKMCTKVTMDDFLTAHHEMGHIQYDMAYAKQPYLLRNGANEGFHEAVGEVMSLSVATPKHLKGMGLLPSNFSEDCETEINFLLKQALNIVGTLPFTYMLEKWRWMVFEGKIPKEQWMEKWWEMKREIVGVVEPLPHDETYCDPASLFHVANDYSFIRYFTRTILEFQFQEALCQIANHTGPLHKCDISNSTEAGKQLKNMLELGKSKPWTFALEQIARTKEMDAKPLLNYFKPLFSWLKEQNGNSVGWSADWSPYSEQSIKVRISLKSALGEKAYEWNDNEMYLFRSSVAYAMRVYFLKVKNETIPFRAEDVWVSDEKIRVSFKFFVTSPTNVSDIIPRSEVEDAIRMSRGRINDAFRLDDKTLEFLGIQPT
Work on B5 yielded a koff [4] of 0.000301 s⁻¹.
